Assay results: patent US6037450

Target: human protein C (human) (UniProt P04070)
Experiment: protein C affinity column (protein C held on HPC4 mAb-AffiGel-10, 3 mM CaCl2, 0.6 mM MgCl2); EPCR antigen in the fractions measured by ELISA

Chain of UniProt P04070 (P04070 43-461): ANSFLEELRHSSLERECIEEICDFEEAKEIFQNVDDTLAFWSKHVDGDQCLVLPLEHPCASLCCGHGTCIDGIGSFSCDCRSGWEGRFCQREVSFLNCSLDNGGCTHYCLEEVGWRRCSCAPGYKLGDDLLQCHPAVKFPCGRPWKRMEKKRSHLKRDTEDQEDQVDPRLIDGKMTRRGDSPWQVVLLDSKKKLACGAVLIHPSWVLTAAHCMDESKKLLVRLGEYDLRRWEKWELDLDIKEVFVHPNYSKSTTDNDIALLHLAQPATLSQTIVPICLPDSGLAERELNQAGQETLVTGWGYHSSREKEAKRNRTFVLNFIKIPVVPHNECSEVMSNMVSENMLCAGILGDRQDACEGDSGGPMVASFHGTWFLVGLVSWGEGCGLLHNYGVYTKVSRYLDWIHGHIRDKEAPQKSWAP

B1: plasma EPCR (soluble endothelial cell protein C/activated protein C receptor purified from human citrated plasma) (receptor)
chain: SQDASDGLQRLHMLQISYFRDPYHVWYQGNASLGGHLTHVLEGPDTNTTIIQLQPLQEPESWARTQSGLQSYLLQFHGLVRLVHQERTLAFPLTIRCFLGCELPPEGSRAHVFFEVAVNGSSFVSFRPERALWQADTQVTSGVVTFTLQQLNAYNRTRYELREFLEDTCVQYVQKHISAENTKG
- percent of applied antigen bound: > 98%
